Results reported in US11001824.
Positions count from the first letter of the chain named. In names and notes the source's numbering stands.

T1: denatured bovine pancreatic Ribonuclease B, P61823
T1 chain: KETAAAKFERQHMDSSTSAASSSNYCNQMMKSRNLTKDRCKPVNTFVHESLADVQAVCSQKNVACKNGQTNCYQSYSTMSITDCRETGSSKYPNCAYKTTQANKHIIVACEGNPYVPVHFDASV

B1: wild-type PNGase F from Flavobacterium meningosepticum (protein)
chain: GIPAPADNTVNIKTFDKVKNAFGDGLSQSAEGTFTFPADVTAVKTIKMFIKNECPNKTCDEWDRYANVYVKNKTTGEWYEIGRFITPYWVGTEKLPRGLEIDVTDFKSLLSGNTELKIYTETWLAKGREYSVDFDIVYGTPDYKYSAVVPVVQYNKSSIDGVPYGKAHTLALKKNIQLPTNTEKAYLRTTISGWGHAKPYDAGSRGCAEWCFRTHTIAINNSNTFQHQLGALGCSANPINNQSPGNWTPDRAGWCPGMAVPTRIDVLNNSLIGSTFSYEYKFQNWTNNGTNGDAFYAISSFVIAKSNTPISAPVVTNLDPHHHHHH
B2: PNGase F D60A single point mutant (protein)
chain: B1 chain with D63A

Molecular target: T1, denatured bovine pancreatic …

Protein | Deglycosylation Activity on RNase B (gel shift assay) | N-glycanase activity assay (gel shift)
B1 | 100% | PNGase F completely de-glycosylates 1 µg of RNase B under the assay conditions described
B2 | 13.4% | 
